Assays:
[1] = molecular target: swine nectin-1 ectodomain (amino acids 30-335) (swine) (UniProt Q9GL76); assay: SPR; BIAcore 3000, CM5 chip; […]) immobilised; […]; 25 C; HBS-EP (10 mM HEPES pH 7.4, 150 mM NaCl, 3 mM EDTA, 0.005% Tween 20); […]
[2] = molecular target: human nectin-1 ectodomain (amino acids 30-335) (human) (UniProt Q15223); assay: as above
Sequence of UniProt Q15223 (Q15223 30-335): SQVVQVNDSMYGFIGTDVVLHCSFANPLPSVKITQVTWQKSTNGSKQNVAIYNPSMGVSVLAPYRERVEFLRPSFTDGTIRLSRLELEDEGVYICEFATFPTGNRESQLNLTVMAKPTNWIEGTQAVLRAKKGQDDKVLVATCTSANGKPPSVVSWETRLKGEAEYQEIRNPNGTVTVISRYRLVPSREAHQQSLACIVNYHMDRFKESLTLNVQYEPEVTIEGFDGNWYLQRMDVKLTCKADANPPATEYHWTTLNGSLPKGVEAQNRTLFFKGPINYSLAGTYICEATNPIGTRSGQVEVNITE

Sequence of UniProt Q9GL76 (Q9GL76 30-335): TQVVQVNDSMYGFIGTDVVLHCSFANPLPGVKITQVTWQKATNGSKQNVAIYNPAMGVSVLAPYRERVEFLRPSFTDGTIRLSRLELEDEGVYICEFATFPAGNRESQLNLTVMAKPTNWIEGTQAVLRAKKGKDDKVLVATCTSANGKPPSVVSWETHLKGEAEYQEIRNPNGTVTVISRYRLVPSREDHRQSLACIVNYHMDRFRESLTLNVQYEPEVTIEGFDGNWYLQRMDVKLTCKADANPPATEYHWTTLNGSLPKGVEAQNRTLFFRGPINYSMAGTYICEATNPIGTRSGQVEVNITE

Substance: PRV gD284 (pseudorabies virus glycoprotein D, residues 1-284, lacking the membrane-proximal loop) (domain or fragment)
- Kd [1]: 18.4 nM
- koff [1]: 0.0211 s⁻¹
- kon [1]: 1.15e+06 M⁻¹ s⁻¹
- Kd [2]: 16.1 nM
- koff [2]: 0.0117 s⁻¹
- kon [2]: 725000 M⁻¹ s⁻¹

Reference: publication PMC5453625
